In the RNAGym collection of RNA variant scans (doi:10.1073/pnas.2313332121):
This sample holds only a part of the variants without activity.

B1: TPR 5TU (parent)
chain: GGAUCUUCUCGAUCUAACAAAAAAGACAAAUCUGCCACAAAGCUUGAGAGCAUCUUCGGAUGCAGAGGCGGCAGCCUUCGGUGGCGCGAUAGCGCCAACGUUCUCAACUAUGACACGCAAAACGCGUGCUCCGUUGAAUGGAGUUUAUCAUG

Variants of: B1
Experiment: polymerase ribozyme fitness, log enrichment relative to wild type (log ratio); higher = more active; in vitro selection for triplet polymerase activity
Outline: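 The heterodimeric triplet polymerase ribozyme's subunits were each mutagenized into PCR-built libraries and transcribed. Every library was selected once, in triplicate, by annealing with a biotinylated primer, the partner subunit and triplets, incubating frozen at −7 °C, gel-excising extended constructs, capturing on streptavidin beads and running RT-PCR. Input and output libraries were Illumina-sequenced, with genotypes kept only at ≥10 input reads and ≥1 read per output. Fitness, from inverse-variance-weighted replicate averages, is the base-2 logarithm of genotype enrichment over wild-type enrichment.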

Going from GGAUCUUCUCGAUCUAACAAAAAAGACAAAUCUGCCACAAAGCUUGAGAGCAUCUUCGGAUGCAGAGGCGGCAGCCUUCGGUGGGGCGAUAGCGCCAACGUUCUCAGCUAUGACACGCAAAACGCGUGCUCCGUUGAAUGGAGUUUAUCAUG to GGAUCUUCUCGAUCUAACAAAAAAGACAAAUCUGCCACAAAGCUUGAGAGCAUCUUCGGAUGCAGAGGCGGCAGCCUUCGGUGGAUCGAUAGCGCCAACGUUCUCAACUAUGACACGCAAAACGCGUGCUCCGUUGAAUGGAGUUUAUCAUG, the “polymerase ribozyme fitness (log ratio)” value rises from ≤ -4.2 to -3.2.

Compared with GGAUCUUCUCGAUCUAACAAAAAAGACAAAUCUGCCACAAAGCUUGAGAGCAUCUUCGGAUGCAGAGGCGGCAGCCUUCGGUGGAGCGAUAGCGCCAACGUUCUCAACUAUGAUACGCAAAACGCGUGCUCCGUUGAAUGGAGUUUAUCAUG, GGAUCUUCUCGAUCUAACAAAAAAGACAAAUCUGCCACAAAGCUUGAGAGCAUCUUCGGAUGCAGAGGCGGCAGCCUUCGGUGGGGCGAUAGCGCCAACGUUCUCAACUAUGACACGCAAAACGCGUGCUCCGUUGAAUGGAGUUUAUCCUG is lower in “polymerase ribozyme fitness (log ratio)” value: -3.28 for the first, -4.1 for the second.

Compared with GGAUCUUCUCGAUCUAACAAAAAAGACAAAUCUGCCACAAAGCUUGAGAGCAUCUUCGGAUGCAGAGGCGGCAGCCUUCGGUGGGGCGAUAGCGCCAACGUUCUCAACUAUGACACGCAAAACGCGUGCUCCGUUGAAUGGAGUUUAUCGUG, GGAUCUUCUCGAUCUAACAAAAAAGACAAAUCUGCCACAAAGCUUGAGAGCAUCUUCGGAUGCAGAGGCGGCAGCCUUCGGUGGAGCGAUAGCGCCAACGUUCUCAAUUAUGACACGCAAAACGCGUGCUCCGUUGAAUGGAGUUUAUCAUG is lower in “polymerase ribozyme fitness (log ratio)” value: -2.67 for the first, -3.66 for the second.

Compared with GGAUCUUCUCGAUCUAACAAAAAAGACAAAUCUGCCACAAAGCUUGAGAGCAUCUUCGGAUGCAGAGGCGGCAGCCUUCGGUGGAUCGAUAGCGCCAACGUUCUCAACUCUGACACGCAAAACGCGUGCUACGUUGAAUGGAGUUUAUCAUG, GGAUCUUCUCGAUCUAACAAAAAAGACAAAUCUGCCACAAAGCUUGAGAGCAUCUUCGGAUGCAGAGGCGGCAGCCUUCGGUGGGGCGAUAGCGCCAAUGUUCUCAACUAUGACACGCAAAACGCGUGCUCCGUUGAAUGGAGUUUAUCAUG is higher in “polymerase ribozyme fitness (log ratio)” value: ≤ -4.2 for the first, -3.51 for the second.

Going from GGAUCUUCUCGAUCUAACAAAAAAGACAAAUCUGCCACAAAGCUUGAGAGCAUCUUCGGAUGCAGAGGCGGCAGCCUUCGGUGGGGCGAUAGCGCCAAAGUUCUCAACUAUGACACGCAAAACGCGUGCUCCGUUGAAUGGAGUUUAUCAUG to GGAUCUUCUCGAUCUAACAAAAAAGACAAAUCUGCCACAAAGCUUGAGAGCAUCUUCGGAUGCAGAGGCGGCAGCCUUCGGUGGAGCGAUAGCGCCAACGUUCUCAACUAUGACAUGCAAACCGCGUGCUCCGUUGAAUGGAGUUUAUCAUG, the “polymerase ribozyme fitness (log ratio)” value falls from -3.3 to -4.17.

Compared with GGAUCUUCUCGAUCUAACAAAAAAGACAAAUCUGCCACAAAGCUUGAGAGCAUCUUCGGAUGCAGAGGCGGCAGCCUUCGGUGGAGCGAUAGCGCCAACGUUCUCAACUAUGACACGCAAAACGCGUGCUCCGUUGAACGGAGUUUAUCAUG, GGAUCUUCUCGAUCUAACAAAAAAGACAAAUCUGCCACAAAGCUUGAGAGCAUCUUCGGAUGCAGAGGCGGCAGCCUUCGGUGGGGUGAUAGCGCCAACGUUCUCAACUAUGACACGCAAAACGCGUGCUCCGUUGAAUGGAGUUUAUCAUG is higher in “polymerase ribozyme fitness (log ratio)” value: -4.1 for the first, -3.28 for the second.

First: GGAUCUUCUCGAUCUAACAAAAAAGACAAAUCUGCCACAAAGCUUGAGAGCAUCUUCGGAUGCAGAGGCGGCAGCCUUCGGUGGAGCGAUAGCGCCAACGUUCUCAACUAUGACACGCAAAACGCGUGCUCCGUUGAAUGAAGUUGAUCAUG
Second: GGAUCUUCUCGAUCUAACAAAAAAGACAAAUCUGCCACAAAGCUUGAGAGCAUCUUCGGAUGCAGAGGCGGCAGCCUUCGGUGGGGCGAUAGCGCCAACGUUCUCAACUAUGACACGCAAAGAGCGUGCUCCGUUGAAUGGAGUUUAUCAUG
The “polymerase ribozyme fitness (log ratio)” value of the first is higher: -1.68 for the first, -2.57 for the second.

Compared with GGAUCUUCUCGAUCUAACAAAAAAGACAAAUCUGCCACAAAGCUUGAGAGCAUCUUCGGAUGCAGAGGCGGCAGCCUUCGGUGGGGCGAUAGCGCCAUCGUUCUCAACUAUGACACGCAAAACGCGUGCUCCGUUGAAUGGAGUUUAUCAUG, GGAUCUUCUCGAUCUAACAAAAAAGACAAAUCUGCCACAAAGCUUGAGAGCAUCUUCGGAUGCAGAGGCGGCAGCCUUCGGUGGGGCGAUAGCGCCAGCGUUCUCAACUAUGACACGCAAAACGCGUGCUCCGUUGAAUGGAGUUUAUCAUG is higher in “polymerase ribozyme fitness (log ratio)” value: -2.9 for the first, -0.929 for the second.

First: GGAUCUUCUCGAUCUAACAAAAAAGACAAAUCUGCCACAAAGCUUGAGAGCAUCUUCGGAUGCAGAGGCGGCAGCCUUCGGUGGAGCGAUAGCGCCAACGUUCUCAACUAUGACACGCAAAACGCGUGCUCCCGUGAAUGGAGUGUAUCAUG
Second: GGAUCUUCUCGAUCUAACAAAAAAGACAAAUCUGCCACAAAGCUUGAGAGCAUCUUCGGAUGCAGAGGCGGCAGCCUUCGGUGGAGCGAUAGCGCCAACGUUCUUAACUAUGACACGCAAAACGCGUGCUCCGUUGAAUGCAGUUUAUCAUG
The “polymerase ribozyme fitness (log ratio)” value of the first is lower: ≤ -4.2 for the first, -3.45 for the second.

Compared with GGAUCUUCUCGAUCUAACAAAAAAGACAAAUCUGCCACAAAGCUUGAGAGCAUCUUCGGAUGCAGAGGCGGCAGCCUUCGGUGGGGCGAUAGCGCCAACGUUCUCAACUAUGACACGCAAAGCGCGUGCUCCGUUGAAUGGAGUUUAUCAUG, GGAUCUUCUCGAUCUAACAAAAAAGACAAAUCUGCCACAAAGCUUGAGAGCAUCUUCGGAUGCAGAGGCGGCAGCCUUCGGUGGGGCGAUAGCGCCAACGUUCUUAACUAUGACACGCAAAACGCGUGCUCCGUUGAAUGGAGUUUAUCAUG is higher in “polymerase ribozyme fitness (log ratio)” value: -3.42 for the first, -1.58 for the second.

First: GGAUCUUCUCGAUCUAACAAAAAAGACAAAUCUGCCACAAAGCUUGAGAGCAUCUUCGGAUGCAGAGGCGGCAGCCUUCGGUGGAGCGAUAGCGCCAACGUUCACAACUAUGACGCGCAAAACGCGUGCUCCGUUGAAUGGAGUUUAUCAUG
Second: GGAUCUUCUCGAUCUAACAAAAAAGACAAAUCUGCCACAAAGCUUGAGAGCAUCUUCGGAUGCAGAGGCGGCAGCCUUCGGUGGGGCGAUAGCGCCAUCGUUCUCAACUAUGACACGCAAAACUCGUGCUCCGUUGAAUGGAGUUUCUCAUG
The “polymerase ribozyme fitness (log ratio)” value of the first is lower: -3.42 for the first, -2.53 for the second.

Going from GGAUCUUCUCGAUCUAACAAAAAAGACAAAUCUGCCACAAAGCUUGAGAGCAUCUUCGGAUGCAGAGGCGGCAGCCUUCGGUGGAGCGAUAGCGCCAACGUUCUCAACUAUGACACGCAAAACGCGUGCUCCGUUGAAUCGAGUUUAUCAUG to GGAUCUUCUCGAUCUAACAAAAAAGACAAAUCUGCCACAAAGCUUGAGAGCAUCUUCGGAUGCAGAGGCGGCAGCCUUCGGUGGGGCGAUAGCGCCAUCGUUCUCAACUAUGACACGCAAAACGCGUGAUCCGCUGAAUGGAGUUUAUCAUG, the “polymerase ribozyme fitness (log ratio)” value falls from -3.64 to -4.18.

Going from GGAUCUUCUCGAUCUAACAAAAAAGACAAAUCUGCCACAAAGCUUGAGAGCAUCUUCGGAUGCAGAGGCGGCAGCCUUCGGUGGGGCGAUAGCGCCAACGUUCUCAACUAUGACACGCAAUACGCGUGCUCCGUUGAAUGGAGUUUAUCAUG to GGAUCUUCUCGAUCUAACAAAAAAGACAAAUCUGCCACAAAGCUUGAGAGCAUCUUCGGAUGCAGAGGCGGCAGCCUUCGGUGGAGCGAUAGCGCCAACGUUCUCAACUAUGACACGCAAAACGCGUGCUCCGUGGAAUGGAGUUUAUCAUG, the “polymerase ribozyme fitness (log ratio)” value falls from -3.11 to ≤ -4.2.

Compared with GGAUCUUCUCGAUCUAACAAAAAAGACAAAUCUGCCACAAAGCUUGAGAGCAUCUUCGGAUGCAGAGGCGGCAGCCUUCGGUGGAGCGAUAGCGCCAACGUUCUCAACUAUGACAUGCAAAACGCGUGCUCCGUUGAAUGGAGUUUAUCAUG, GGAUCUUCUCGAUCUAACAAAAAAGACAAAUCUGCCACAAAGCUUGAGAGCAUCUUCGGAUGCAGAGGCGGCAGCCUUCGGUGGGGCGAUAGCGCCAACGUUCUCAUCUAUGACACGCAAAACGCUUGCUCUGUUGAAUGGAGUUUAUCAUG is lower in “polymerase ribozyme fitness (log ratio)” value: -1.08 for the first, ≤ -4.2 for the second.

GGAUCUUCUCGAUCUAACAAAAAAGACAAAUCUGCCACAAAGCUUGAGAGCAUCUUCGGAUGCAGAGGCGGCAGCCUUCGGUGGAGCGAUAGCGCCAACGUUCUCAACUAUGACACGCAAAACGCGUGCGCCGUUGAAUGGAGUUUAUCAUG and GGAUCUUCUCGAUCUAACAAAAAAGACAAAUCUGCCACAAAGCUUGAGAGCAUCUUCGGAUGCAGAGGCGGCAGCCUUCGGUGGAGCGAUAGCGCCAACGUUCUCAACUAUGACACGCAAAACGCGUGCUCCCUUGAAUGGAGUUUAUCAUG are within 0.2 log units of each other in “polymerase ribozyme fitness (log ratio)” value: -3.53 for the first, -3.5 for the second.

Going from GGAUCUUCUCGAUCUAACAAAAAAGACAAAUCUGCCACAAAGCUUGAGAGCAUCUUCGGAUGCAGAGGCGGCAGCCUUCGGUGGAGCGAUAGCGCCAACGUUCUCAACUAUGACACUCAAAACGCGUGCUCCGUUGAAUGGAGUUUAUCAUG to GGAUCUUCUCGAUCUAACAAAAAAGACAAAUCUGCCACAAAGCUUGAGAGCAUCUUCGGAUGCAGAGGCGGCAGCCUUCGGUGGGGCGAUAGCGCCAAUGUUCUCAACUAUGACACGCAAAACGCGUGCUCCGUUGAAUUGAGUUUAUCAUG, the “polymerase ribozyme fitness (log ratio)” value falls from -0.587 to ≤ -4.2.

First: GGAUCUUCUCGAUCUAACAAAAAAGACAAAUCUGCCACAAAGCUUGAGAGCAUCUUCGGAUGCAGAGGCGGCAGCCUUCGGUGGGGCGAUAGCGCCAACGUUAUCAACUAUGACACGCAAAACGCGUGCUCCGUUGAAUGGAGUUUAUCAUG
Second: GGAUCUUCUCGAUCUAACAAAAAAGACAAAUCUGCCACAAAGCUUGAGAGCAUCUUCGGAUGCAGAGGCGGCAGCCUUCGGUGGGGUGAUAGCGCCAACGUUCUCAACUAUGACACGCAAAACGCGUGCUCCGUUGAAUGGAGUGUAUCAUG
The “polymerase ribozyme fitness (log ratio)” value of the first is lower: ≤ -4.2 for the first, -3.08 for the second.

First: GGAUCUUCUCGAUCUAACAAAAAAGACAAAUCUGCCACAAAGCUUGAGAGCAUCUUCGGAUGCAGAGGCGGCAGCCUUCGGUGGAGCGAUAGCGCCAACGUUCUCAACUAUGACACGCAAAACGCGUGCUCCGUUGAAUGGAAUUUAUCAUG
Second: GGAUCUUCUCGAUCUAACAAAAAAGACAAAUCUGCCACAAAGCUUGAGAGCAUCUUCGGAUGCAGAGGCGGCAGCCUUCGGUGGGGCGAUAGCGCCAACGUUAUCAACUAUGACACGCAAAACGCGUGCUCCGUUGAAUUGAGUUUAUCAUG
The “polymerase ribozyme fitness (log ratio)” value of the first is higher: -1.99 for the first, ≤ -4.2 for the second.

First: GGAUCUUCUCGAUCUAACAAAAAAGACAAAUCUGCCACAAAGCUUGAGAGCAUCUUCGGAUGCAGAGGCGGCAGCCUUCGGUGGGGCGAUAGCGCAGACGUACUCAACUAUGACACGCAAAACGCGUGCUCAGUAGAAUGGAGUUUAUCAUG
Second: GGAUCUUCUCGAUCUAACAAAAAAGACAAAUCUGCCACAAAGCUUGAGAGCAUCUUCGGAUGCAGAGGCGGCAGCCUUCGGUGGGGCGAUAGCGCCAACGUUCUCAACUAUGACUCGCAAAACGCGUGCUCCGUUGAAUGGAGUUUAUCAUG
The “polymerase ribozyme fitness (log ratio)” value of the first is lower: ≤ -4.2 for the first, -3.56 for the second.
